In article PMC10318465, “A heme pocket aromatic quadrupole modulates gas binding to cytochrome c′-β: Implications for NO sensors” (The Journal of Biological Chemistry, 2023):

B1: V68T: V68T variant of pig myoglobin (Mb) (protein, UniProt P02189 2-154, looked up, variant V68T)
Myoglobin: GLSDGEWQLVLNVWGKVEADVAGHGQEVLIRLFKGHPETLEKFDKFKHLKSEDEMKASEDLKKHGNTTLTALGGILKKKGHHEAELTPLAQSHATKHKIPVKYLEFISEAIIQVLQSKHPGDFGADAQGAMSKALELFRNDMAAKYKELGFQG
B2: H64V, V68T: H64V/V68T Mb double variant (protein, UniProt P02189 2-154, looked up, variant H64V V68T)
Myoglobin: GLSDGEWQLVLNVWGKVEADVAGHGQEVLIRLFKGHPETLEKFDKFKHLKSEDEMKASEDLKKVGNTTLTALGGILKKKGHHEAELTPLAQSHATKHKIPVKYLEFISEAIIQVLQSKHPGDFGADAQGAMSKALELFRNDMAAKYKELGFQG
B3: Mb pig (wt): wild-type pig myoglobin (protein, UniProt P02189 2-154, looked up)
Myoglobin: GLSDGEWQLVLNVWGKVEADVAGHGQEVLIRLFKGHPETLEKFDKFKHLKSEDEMKASEDLKKHGNTVLTALGGILKKKGHHEAELTPLAQSHATKHKIPVKYLEFISEAIIQVLQSKHPGDFGADAQGAMSKALELFRNDMAAKYKELGFQG

Columns and labels:
His123 = His123 (UniProt position 143, GCFGCHAAQKE); assay: UV-vis; details: 1x MHTCP cocktail buffer (5x stock: 500 mM CAPS, 250 mM Mes, 250 mM Hepes, 250 mM Pipes, 250 mM TAPS), sodium dithionite, excess PROLI NONOate, Ferrous heme-nitrosyl Fe(II)NO complex, 5 uM protein, equilibrium between 5cNO (His 123 dissociated) and 6cNO (His 123 bound)
[1] = 6cNO; ref AxCP-α [9],[56]; L16A [9],[10]; Mb pig wt and V68T [57]; sGC [17],[58]; Ns H-NOX [16]; cited from earlier work
[2] = parameters: method as in earlier work; details: 6cCO, ref AxCP-α [9],[56], L16A [9],[10], Mb pig wt and V68T [57], H64V,V68T [25], sGC [17],[58], Ns H-NOX [16], cited from earlier work; for Kd: read-out: Kd(CO)
[3] = Literature kinetic parameters of six-coordinate Fe(II)CO complexes of selected heme proteins; format: binding; details: from literature koff(CO) values of Table 4

Row | Molecule | pKa (His123) | kon(NO) [1] | koff(CO) [2] | kon(CO) [2] | Kd [2] | increase of koff(CO) relative to wt Mb [3]
1 | Cytochrome c'-beta (McCP-beta) (Methylococcus capsulatus (Bath)) | 7.17 ± 0.03 | – | – | – | – | –
2 | B1 | – | 4.9e+06 M⁻¹ s⁻¹ | 0.079 s⁻¹ | 610000 M⁻¹ s⁻¹ | 130 nM | ~4 fold
3 | B2 | – | – | 0.063 s⁻¹ | 2.7e+07 M⁻¹ s⁻¹ | 2.3 nM | ~3 fold
4 | B3 | – | 1.7e+07 M⁻¹ s⁻¹ | 0.019 s⁻¹ | 780000 M⁻¹ s⁻¹ | 24 nM | –
